Measured values: publication PMC10018365, “Cryo-EM structure of the fully assembled Elongator complex” (Nucleic Acids Research, 2023)

B1: Homo sapiens Elp456 subcomplex with Elp4 Δ133–175 (complex)
chain 1: MAAVATCGSVAASTGSAVATASKSNVTSFQRRGPRASVTNDSGPRLVSIAGTRPSVRNGQLLVSTGLPALDQLLGGGLAVGTVLLIEEDKYNIYSPLLFKYFLAEGIVNGHTLLVASAKEDPANILQELPAPSSSRFGHYYDASKRMPQELIEASNWHGFFLPEKISSTLKVEPCSLTPGYTKLLQFIQNIIYEEGFDGSNPQKKQRNILRIGIQNLGSPLWGDDICCAENGGNSHSLTKFLYVLRGLLRTSLSACIITMPTHLIQNKAIIARVTTLSDVVVGLESFIGSERETNPLYKDYHGLIHIRQIPRLNNLICDESDVKDLAFKLKRKLFTIERLHLPPDLSDTVSRSSKMDLAESAKRLGPGCGMMAGGKKHLDF
chain 2: MLDSLLALGGLVLLRDSVEWEGRSLLKALVKKSALCGEQVHILGCEVSEEEFREGFDSDINNRLVYHDFFRDPLNWSKTEEAFPGGPLGALRAMCKRTDPVPVTIALDSLSWLLLRLPCTTLCQVLHAVSHQDSCPGDSSSVGKVSVLGLLHEELHGPGPVGALSSLAQTEVTLGGTMGQASAHILCRRPRQRPTDQTQWFSILPDFSLDLQEGPSVESQPYSDPHIPPVDPTTHLTFNLHLSKKEREARDSLILPFQFSSEKQQALLRPRPGQATSHIFYEPDAYDDLDQEDPDDDLDI
chain 3: MFVELNNLLNTTPDRAEQGKLTLLCDAKTDGSFLVHHFLSFYLKANCKVCFVALIQSFSHYSIVGQKLGVSLTMARERGQLVFLEGLKSAVDVVFQAQKEPHPLQFLREANAGNLKPLFEFVREALKPVDSGEARWTYPVLLVDDLSVLLSLGMGAVAVLDFIHYCRATVCWELKGNMVVLVHDSGDAEDEENDILLNGLSHQSHLILRAEGLATGFCRDVHGQLRILWRRPSQPAVHRDQSFTYQYKIQDKSVSFFAKGMSPAVL
notes: Elp5, human, ORF; Elp6, human, ORF; source: Hi-5 insect cells (baculovirus, biGBac), purified (IgG Sepharose with TEV elution, Superose 6); not shown: FLAG, C-terminal, kept; Protein A, C-terminal, cleaved; copies: 2 + 2 + 2
B2: Saccharomyces cerevisiae Elp1 (natural protein, UniProt Q06706 1-1349, looked up)
chain: MVEHDKSGSKRQELRSNMRNLITLNKGKFKPTASTAEGDEDDLSFTLLDSVFDTLSDSITCVLGSTDIGAIEVQQFMKDGSRNVLASFNIQTFDDKLLSFVHFADINQLVFVFEQGDIITATYDPVSLDPAETLIEIMGTIDNGIAAAQWSYDEETLAMVTKDRNVVVLSKLFEPISEYHLEVDDLKISKHVTVGWGKKETQFRGKGARAMEREALASLKASGLVGNQLRDPTMPYMVDTGDVTALDSHEITISWRGDCDYFAVSSVEEVPDEDDETKSIKRRAFRVFSREGQLDSASEPVTGMEHQLSWKPQGSLIASIQRKTDLGEEDSVDVIFFERNGLRHGEFDTRLPLDEKVESVCWNSNSEALAVVLANRIQLWTSKNYHWYLKQELYASDISYVKWHPEKDFTLMFSDAGFINIVDFAYKMAQGPTLEPFDNGTSLVVDGRTVNITPLALANVPPPMYYRDFETPGNVLDVACSFSNEIYAAINKDVLIFAAVPSIEEMKKGKHPSIVCEFPKSEFTSEVDSLRQVAFINDSIVGVLLDTDNLSRIALLDIQDITQPTLITIVEVYDKIVLLRSDFDYNHLVYETRDGTVCQLDAEGQLMEITKFPQLVRDFRVKRVHNTSAEDDDNWSAESSELVAFGITNNGKLFANQVLLASAVTSLEITDSFLLFTTAQHNLQFVHLNSTDFKPLPLVEEGVEDERVRAIERGSILVSVIPSKSSVVLQATRGNLETIYPRIMVLAEVRKNIMAKRYKEAFIVCRTHRINLDILHDYAPELFIENLEVFINQIGRVDYLNLFISCLSEDDVTKTKYKETLYSGISKSFGMEPAPLTEMQIYMKKKMFDPKTSKVNKICDAVLNVLLSNPEYKKKYLQTIITAYASQNPQNLSAALKLISELENSEEKDSCVTYLCFLQDVNVVYKSALSLYDVSLALLVAQKSQMDPREYLPFLQELQDNEPLRRKFLIDDYLGNYEKALEHLSEIDKDGNVSEEVIDYVESHDLYKHGLALYRYDSEKQNVIYNIYAKHLSSNQMYTDAAVAYEMLGKLKEAMGAYQSAKRWREAMSIAVQKFPEEVESVAEELISSLTFEHRYVDAADIQLEYLDNVKEAVALYCKAYRYDIASLVAIKAKKDELLEEVVDPGLGEGFGIIAELLADCKGQINSQLRRLRELRAKKEENPYAFYGQETEQADDVSVAPSETSTQESFFTRYTGKTGGTAKTGASRRTAKNKRREERKRARGKKGTIYEEEYLVQSVGRLIERLNQTKPDAVRVVEGLCRRNMREQAHQIQKNFVEVLDLLKANVKEIYSISEKDRERVNENGEVYYIPEIPVPEIHDFPKSHIVDF
notes: Elp1, S. cerevisiae, full-length ORF; also called ScElp1; source: S. cerevisiae DS1-2b, overexpressed, purified within ScElongator

What was measured:
[1] = biological target: T1, Homo sapiens Elp123 subcomplex, wild type (Homo sapiens, UniProt O95163 1-1332; Q6IA86 1-826; Q9H9T3 1-547); assay: pull-down; 10 μg bait, 20 μg prey; Elp123 on StrepTactin Sepharose by Twin-Strep-tagged Elp3, or Elp456 on anti-DYKDDDDK resin by FLAG-tagged Elp6; 30-60 min at 4°C; washes in 20 mM HEPES pH 7.5, 100 mM NaCl, 1 mM DTT, 0.05% Tween 20; SDS-PAGE with Coomassie or silver stain; also with ATP and bulk tRNA; details: both partners purified
T1 construct: Elp1, human, ORF; Elp2, human, ORF; Elp3, human, ORF; also called human Elp123; source: Sf9-3 insect cells (baculovirus, biGBac), purified (StrepTrap, heparin, Superose 6); not shown: Twin-Strep-tag, C-terminal, kept; copies: 2 + 2 + 2

[2] = biological target: the molecule itself; assay: cryo-EM structure; ScElongator purified from overexpressing yeast, native sample (4.35 Å) and BS3-stabilised sample (6.6 Å; two-lobed map 17.2 Å); sample buffer 20 mM HEPES pH 7.5, 100 mM NaCl, 3 mM DTT

T1 sequence (O95163 whole entry, chain 1 of 3): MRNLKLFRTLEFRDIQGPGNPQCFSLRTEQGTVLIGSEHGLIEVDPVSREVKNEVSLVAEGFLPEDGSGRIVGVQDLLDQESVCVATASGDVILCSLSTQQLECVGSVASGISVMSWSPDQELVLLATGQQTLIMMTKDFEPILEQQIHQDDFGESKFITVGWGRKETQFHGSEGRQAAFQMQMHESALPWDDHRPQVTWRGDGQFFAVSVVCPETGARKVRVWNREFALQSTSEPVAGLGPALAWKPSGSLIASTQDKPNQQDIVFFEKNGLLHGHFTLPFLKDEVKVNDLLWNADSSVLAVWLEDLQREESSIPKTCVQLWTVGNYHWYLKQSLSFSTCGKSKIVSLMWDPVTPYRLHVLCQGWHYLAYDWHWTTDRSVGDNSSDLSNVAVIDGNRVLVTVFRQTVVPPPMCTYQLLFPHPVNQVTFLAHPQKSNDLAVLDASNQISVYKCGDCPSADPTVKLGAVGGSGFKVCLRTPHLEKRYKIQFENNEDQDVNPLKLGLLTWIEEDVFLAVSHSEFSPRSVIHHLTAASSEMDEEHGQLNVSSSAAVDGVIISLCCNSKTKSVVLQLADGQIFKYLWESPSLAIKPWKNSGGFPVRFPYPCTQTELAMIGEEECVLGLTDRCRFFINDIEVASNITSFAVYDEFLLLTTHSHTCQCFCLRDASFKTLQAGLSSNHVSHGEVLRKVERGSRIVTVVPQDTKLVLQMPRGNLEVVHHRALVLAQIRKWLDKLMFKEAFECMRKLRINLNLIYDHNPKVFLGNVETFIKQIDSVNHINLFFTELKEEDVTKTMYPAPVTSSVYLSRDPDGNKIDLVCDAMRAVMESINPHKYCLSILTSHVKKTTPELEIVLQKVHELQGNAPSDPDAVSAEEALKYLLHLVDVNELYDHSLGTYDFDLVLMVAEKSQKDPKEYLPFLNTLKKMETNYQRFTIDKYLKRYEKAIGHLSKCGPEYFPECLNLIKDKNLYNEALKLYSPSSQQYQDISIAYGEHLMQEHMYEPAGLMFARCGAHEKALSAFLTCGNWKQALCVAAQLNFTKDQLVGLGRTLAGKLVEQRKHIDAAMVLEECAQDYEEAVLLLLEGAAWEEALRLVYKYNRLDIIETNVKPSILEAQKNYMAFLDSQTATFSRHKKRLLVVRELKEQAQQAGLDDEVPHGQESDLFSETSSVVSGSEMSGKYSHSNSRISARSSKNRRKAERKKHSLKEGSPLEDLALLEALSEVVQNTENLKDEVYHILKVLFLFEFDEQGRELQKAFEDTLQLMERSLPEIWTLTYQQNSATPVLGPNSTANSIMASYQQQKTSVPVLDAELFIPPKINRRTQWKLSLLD
T1 sequence (Q6IA86 whole entry, chain 2 of 3): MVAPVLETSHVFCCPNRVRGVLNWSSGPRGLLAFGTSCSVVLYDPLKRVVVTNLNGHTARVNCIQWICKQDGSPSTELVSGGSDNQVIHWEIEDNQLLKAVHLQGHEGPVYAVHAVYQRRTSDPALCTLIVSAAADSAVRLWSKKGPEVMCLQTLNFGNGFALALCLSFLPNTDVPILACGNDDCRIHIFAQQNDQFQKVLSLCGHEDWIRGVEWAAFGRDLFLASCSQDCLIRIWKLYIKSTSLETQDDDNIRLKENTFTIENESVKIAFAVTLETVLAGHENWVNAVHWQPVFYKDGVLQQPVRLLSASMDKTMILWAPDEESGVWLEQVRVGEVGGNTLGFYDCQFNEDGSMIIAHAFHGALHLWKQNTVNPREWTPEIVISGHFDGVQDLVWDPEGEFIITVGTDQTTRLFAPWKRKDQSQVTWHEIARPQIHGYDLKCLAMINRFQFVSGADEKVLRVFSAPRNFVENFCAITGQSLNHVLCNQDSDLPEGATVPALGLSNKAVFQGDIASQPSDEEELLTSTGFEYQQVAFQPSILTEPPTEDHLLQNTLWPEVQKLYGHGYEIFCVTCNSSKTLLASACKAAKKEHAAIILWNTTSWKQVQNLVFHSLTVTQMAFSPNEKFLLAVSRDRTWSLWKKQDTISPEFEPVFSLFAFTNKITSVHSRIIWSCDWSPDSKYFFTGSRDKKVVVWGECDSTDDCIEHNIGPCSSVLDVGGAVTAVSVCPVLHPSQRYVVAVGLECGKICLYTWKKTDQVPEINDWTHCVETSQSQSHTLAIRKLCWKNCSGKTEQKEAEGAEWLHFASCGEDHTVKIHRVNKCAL
T1 sequence (Q9H9T3 whole entry, chain 3 of 3): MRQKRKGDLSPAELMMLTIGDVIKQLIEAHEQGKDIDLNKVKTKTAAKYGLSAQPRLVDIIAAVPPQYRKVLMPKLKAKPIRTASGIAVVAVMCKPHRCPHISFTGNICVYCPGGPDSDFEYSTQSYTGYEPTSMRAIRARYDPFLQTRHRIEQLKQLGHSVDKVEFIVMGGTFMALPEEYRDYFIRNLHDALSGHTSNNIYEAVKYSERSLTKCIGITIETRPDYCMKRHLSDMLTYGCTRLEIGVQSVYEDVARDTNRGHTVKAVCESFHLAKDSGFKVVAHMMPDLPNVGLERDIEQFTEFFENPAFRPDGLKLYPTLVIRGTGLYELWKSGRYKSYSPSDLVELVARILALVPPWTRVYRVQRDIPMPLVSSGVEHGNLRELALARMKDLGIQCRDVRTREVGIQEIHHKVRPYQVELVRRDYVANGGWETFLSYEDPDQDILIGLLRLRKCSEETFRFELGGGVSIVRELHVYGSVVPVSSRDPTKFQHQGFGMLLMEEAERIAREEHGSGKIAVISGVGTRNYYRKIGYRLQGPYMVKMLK

| Binder | binding result [1] | binding result [2] |
| --- | --- | --- |
| B1 | binds |  |
| B2 |  | binds |
